# Assay results as given in publication PMC2877795, “Laminin chain assembly is regulated by specific coiled-coil interactions” (Journal of Structural Biology, 2010).
# T1: β1γ1 complex of the recombinant mouse laminin coiled-coil fragments (mouse, UniProt P02469 1561-1786; P02468 1362-1607)
# T1 construct: two residues (GlySer) left from the protease recognition site after thrombin cleavage; laminin β1 chain, mouse, residues 1561-1786 of the native chain; as m6; laminin γ1 chain, mouse, residues 1362-1607 of the native chain; as m9; heterodimer by AUC; in the αβγ tests all three chains were mixed, the βγ complex was not isolated beforehand; source: mixture of the purified E. coli fragments; not …
# T1 sequence 1: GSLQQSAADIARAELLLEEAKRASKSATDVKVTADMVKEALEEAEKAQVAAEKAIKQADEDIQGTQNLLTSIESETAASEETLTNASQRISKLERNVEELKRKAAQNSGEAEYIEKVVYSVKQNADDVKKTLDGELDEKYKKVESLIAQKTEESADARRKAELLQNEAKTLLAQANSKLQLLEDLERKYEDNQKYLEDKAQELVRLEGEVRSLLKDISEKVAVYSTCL
# T1 sequence 2: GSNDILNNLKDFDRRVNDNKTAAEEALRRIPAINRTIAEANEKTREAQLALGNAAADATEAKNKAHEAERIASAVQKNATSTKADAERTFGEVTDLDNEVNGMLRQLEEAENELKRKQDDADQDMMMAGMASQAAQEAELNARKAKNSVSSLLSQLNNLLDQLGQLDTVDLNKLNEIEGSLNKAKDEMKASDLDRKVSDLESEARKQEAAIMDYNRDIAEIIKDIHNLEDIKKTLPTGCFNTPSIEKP
# T2: β2γ1 complex of the recombinant mouse laminin coiled-coil fragments (mouse, UniProt Q61292 1575-1799; P02468 1362-1607)
# T2 construct: two residues (GlySer) left from the protease recognition site after thrombin cleavage; laminin β2 chain, mouse, residues 1575-1799 of the native chain; as m7; laminin γ1 chain, mouse, residues 1362-1607 of the native chain; as m9; in the αβγ tests all three chains were mixed, the βγ complex was not isolated beforehand; source: mixture of the purified E. coli fragments; not shown: 6xHis, …
# T2 sequence 1: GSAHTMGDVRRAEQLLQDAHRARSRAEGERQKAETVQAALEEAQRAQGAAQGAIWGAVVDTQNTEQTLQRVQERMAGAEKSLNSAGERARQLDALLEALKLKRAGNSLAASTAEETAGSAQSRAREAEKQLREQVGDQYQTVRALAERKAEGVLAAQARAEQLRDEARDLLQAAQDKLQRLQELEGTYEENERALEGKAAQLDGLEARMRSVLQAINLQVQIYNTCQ
# T2 sequence 2: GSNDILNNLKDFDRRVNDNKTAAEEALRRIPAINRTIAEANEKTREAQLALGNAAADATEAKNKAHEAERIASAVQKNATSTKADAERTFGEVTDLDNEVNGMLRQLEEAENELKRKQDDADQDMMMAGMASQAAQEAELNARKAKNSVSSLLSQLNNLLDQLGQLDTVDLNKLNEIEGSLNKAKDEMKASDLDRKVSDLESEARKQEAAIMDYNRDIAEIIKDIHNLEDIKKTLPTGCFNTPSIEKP
# T3: β2γ3 complex of the recombinant mouse laminin coiled-coil fragments (mouse, UniProt Q61292 1575-1799; Q9R0B6 1344-1581)
# T3 construct: two residues (GlySer) left from the protease recognition site after thrombin cleavage; laminin β2 chain, mouse, residues 1575-1799 of the native chain; as m7; laminin γ3 chain, mouse, residues 1344-1581 of the native chain; as m11; in the αβγ tests all three chains were mixed, the βγ complex was not isolated beforehand; source: mixture of the purified E. coli fragments; not shown: 6xHis, …
# T3 sequence 1: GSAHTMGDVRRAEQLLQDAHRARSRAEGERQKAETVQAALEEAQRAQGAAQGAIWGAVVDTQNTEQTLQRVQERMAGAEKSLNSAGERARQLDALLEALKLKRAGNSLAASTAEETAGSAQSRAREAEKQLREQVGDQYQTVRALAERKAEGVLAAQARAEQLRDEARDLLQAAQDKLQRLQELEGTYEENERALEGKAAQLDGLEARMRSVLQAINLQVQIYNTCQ
# T3 sequence 2: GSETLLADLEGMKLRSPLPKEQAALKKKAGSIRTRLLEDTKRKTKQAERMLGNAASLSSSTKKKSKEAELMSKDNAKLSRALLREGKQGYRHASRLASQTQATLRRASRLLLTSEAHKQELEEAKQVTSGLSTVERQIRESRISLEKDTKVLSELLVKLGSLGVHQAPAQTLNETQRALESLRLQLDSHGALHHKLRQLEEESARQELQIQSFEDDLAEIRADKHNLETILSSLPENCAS
# T4: recombinant mouse laminin γ2 chain C-terminal coiled-coil fragment (949–1191) (mouse, UniProt Q61092 949-1191)
# T4 construct: two residues (GlySer) left from the protease recognition site after thrombin cleavage; laminin γ2 chain, mouse, C-terminal coiled-coil fragment, residues 949-1191 of the native chain (243 residues); source: E. coli JM109(DE3), purified (Ni2+-Sepharose, denaturing, 8 M urea), 6xHis tag removed by thrombin; not shown: 6xHis, N-terminal, cleaved; pPEP-T leader (short C-terminal fragment of the …)
# T4 sequence: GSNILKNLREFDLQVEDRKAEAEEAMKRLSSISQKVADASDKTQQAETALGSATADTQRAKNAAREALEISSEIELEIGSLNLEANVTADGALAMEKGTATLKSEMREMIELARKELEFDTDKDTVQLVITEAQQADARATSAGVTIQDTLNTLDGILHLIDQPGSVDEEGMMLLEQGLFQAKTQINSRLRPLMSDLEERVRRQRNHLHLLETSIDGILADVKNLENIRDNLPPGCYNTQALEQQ
# T5: recombinant mouse laminin γ3 chain C-terminal coiled-coil fragment (1344–1581) (mouse, UniProt Q9R0B6 1344-1581)
# T5 construct: two residues (GlySer) left from the protease recognition site after thrombin cleavage; laminin γ3 chain, mouse, C-terminal coiled-coil fragment, residues 1344-1581 of the native chain (238 residues); source: E. coli JM109(DE3), purified (Ni2+-Sepharose, denaturing, 8 M urea), 6xHis tag removed by thrombin; not shown: 6xHis, N-terminal, cleaved
# T5 sequence: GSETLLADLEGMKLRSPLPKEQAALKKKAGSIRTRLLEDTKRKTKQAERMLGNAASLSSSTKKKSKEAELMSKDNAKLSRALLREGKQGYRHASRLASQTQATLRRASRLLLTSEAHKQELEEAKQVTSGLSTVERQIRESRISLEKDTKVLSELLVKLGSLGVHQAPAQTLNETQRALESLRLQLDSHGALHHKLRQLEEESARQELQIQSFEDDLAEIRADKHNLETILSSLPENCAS
# T6: recombinant mouse laminin γ1 chain C-terminal coiled-coil fragment (1362–1607) (mouse, UniProt P02468 1362-1607)
# T6 construct: two residues (GlySer) left from the protease recognition site after thrombin cleavage; laminin γ1 chain, mouse, C-terminal coiled-coil fragment, residues 1362-1607 of the native chain (246 residues); source: E. coli JM109(DE3), purified (Ni2+-Sepharose, denaturing, 8 M urea), 6xHis tag removed by thrombin; not shown: 6xHis, N-terminal, cleaved; pPEP-T leader (short C-terminal fragment of the …)
# T6 sequence: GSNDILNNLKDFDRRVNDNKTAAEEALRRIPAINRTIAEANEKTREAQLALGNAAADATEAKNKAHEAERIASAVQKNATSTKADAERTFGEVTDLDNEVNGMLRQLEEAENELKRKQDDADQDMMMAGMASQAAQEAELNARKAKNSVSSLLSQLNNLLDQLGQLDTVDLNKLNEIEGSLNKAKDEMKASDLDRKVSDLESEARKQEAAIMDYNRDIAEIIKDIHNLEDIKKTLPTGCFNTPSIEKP
# Experiments:
# Settings in all cases: both partners purified
# [1] = molecular target: T1, β1γ1 complex of the recombinant mouse …; experiment: native gel or EMSA; mixtures of one α, one β and one γ chain fragment; 10% non-denaturing PAGE (acid gels for basic complexes); mixtures reduced, heated to 70 °C for 5 min and cooled; run overnight at 50 V, room temperature, no cooling; Coomassie; bands confirmed by in-gel trypsin digestion and mass spectrometry
# [2] = molecular target: T2, β2γ1 complex of the recombinant mouse …; experiment: as above
# [3] = molecular target: T3, β2γ3 complex of the recombinant mouse …; experiment: as above
# [4] = molecular target: T4, recombinant mouse laminin γ2 chain …; experiment: native gel or EMSA; mixtures of one β and one γ chain fragment; 10% non-denaturing PAGE (acid gels for basic complexes); mixtures reduced, heated to 70 °C for 5 min and cooled; run overnight at 50 V; Coomassie; bands confirmed by in-gel trypsin digestion and mass spectrometry
# [5] = molecular target: T5, recombinant mouse laminin γ3 chain …; experiment: as above
# [6] = molecular target: T6, recombinant mouse laminin γ1 chain …; experiment: as above
Binder,binding result [1],binding result [2],binding result [3],binding result [4],binding result [5],binding result [6]
"recombinant mouse laminin α5 chain C-terminal coiled-coil fragment (2525–2748) (domain or fragment, two residues (GlySer) left from the protease recognition site after thrombin cleavage; laminin α5 chain, mouse, C-terminal coiled-coil fragment, residues 2525-2748 of the native chain (224 residues); source: E. coli JM109(DE3), purified (Ni2+-Sepharose, denaturing, 8 M urea), 6xHis tag removed by thrombin; not shown: 6xHis, N-terminal, cleaved) GSNAYSSILQAVQAAEDAAGQALRQASRTWEMVVQRGLAAGARQLLANSSALEETILGHQGRLGLAQGRLQAAGIQLHNVWARKNQLAAQIQEAQAMLAMDTSETSEKIAHAKAVAAEALSTATHVQSQLQGMQKNVERWQSQLGGLQGQDLSQVERDASSSVSTLEKTLPQLLAKLSRLENRGVHNASLALSANIGRVRKLIAQARSAASKVKVSMKFNGRSGVR",binds,binds,binds,–,–,–
"recombinant mouse laminin β2 chain C-terminal coiled-coil fragment (1575–1799) (domain or fragment, two residues (GlySer) left from the protease recognition site after thrombin cleavage; laminin β2 chain, mouse, C-terminal coiled-coil fragment, residues 1575-1799 of the native chain (225 residues); source: E. coli JM109(DE3), purified (Ni2+-Sepharose, denaturing, 8 M urea), 6xHis tag removed by thrombin; not shown: 6xHis, N-terminal, cleaved) GSAHTMGDVRRAEQLLQDAHRARSRAEGERQKAETVQAALEEAQRAQGAAQGAIWGAVVDTQNTEQTLQRVQERMAGAEKSLNSAGERARQLDALLEALKLKRAGNSLAASTAEETAGSAQSRAREAEKQLREQVGDQYQTVRALAERKAEGVLAAQARAEQLRDEARDLLQAAQDKLQRLQELEGTYEENERALEGKAAQLDGLEARMRSVLQAINLQVQIYNTCQ",–,–,–,binds,binds,binds
"recombinant mouse laminin β3 chain C-terminal coiled-coil fragment (945–1168) (domain or fragment, two residues (GlySer) left from the protease recognition site after thrombin cleavage; laminin β3 chain, mouse, C-terminal coiled-coil fragment, residues 945-1168 of the native chain (224 residues); source: E. coli JM109(DE3), purified (Ni2+-Sepharose, denaturing, 8 M urea), 6xHis tag removed by thrombin; not shown: 6xHis, N-terminal, cleaved) GSLSQTKQDIARARRLQAEAEQARSRAHAVEGQVDDVVGNLRQGTVALQEAQDTMQGTGRSLRLIQERVGEVQQVLVPAERLVKGMKEQMSGFWARMKELRRQAQEEQAQAMQARQLAEGASQQAMNAQEGFKRLKQKYTELKDRLGQSPVLGEQGNRILSIKMEAEELFGETMEMMDKMKDMESELLRGSQAIMLRSADLSGLEKRVEQIRSYINGRVLYYATCK",–,–,–,binds,–,–
"recombinant mouse laminin α1 chain C-terminal coiled-coil fragment (1911–2125) (domain or fragment, two residues (GlySer) left from the protease recognition site after thrombin cleavage; laminin α1 chain, mouse, C-terminal coiled-coil fragment, residues 1911-2125 of the native chain (215 residues); source: E. coli JM109(DE3), purified (Ni2+-Sepharose, denaturing, 8 M urea), 6xHis tag removed by thrombin; not shown: 6xHis, N-terminal, cleaved; pPEP-T leader (short C-terminal fragment of the …)) GSHVHSNIQTLTEEAEMLAADAHKTANKTDLISESLASRGKAVLQRSSRFLKESVSTRRKQQGITMKLDELKNLTSQFQESMDNIMKQANDSLAMLRESPGGMREKGRKARELAAAANESAVKTLEDVLALSLRVFNTSEDLSRVNATVQETNDLLHNSTMTTLLAGRKMKDMEMQANLLLDRLKPLKTLEENLSRNLSEIKLLISRARKQVASIKV",binds,binds,–,–,–,–
